Our source for the Kd values is patent US20220062373A1 (published 2022).

Broadly, the Kd is the concentration at which binding is half-saturated.

The target in the test is T1, Recombinant human CD206 (MRC1/CD206) (human, UniProt P22897 19-1383).
T1 chain: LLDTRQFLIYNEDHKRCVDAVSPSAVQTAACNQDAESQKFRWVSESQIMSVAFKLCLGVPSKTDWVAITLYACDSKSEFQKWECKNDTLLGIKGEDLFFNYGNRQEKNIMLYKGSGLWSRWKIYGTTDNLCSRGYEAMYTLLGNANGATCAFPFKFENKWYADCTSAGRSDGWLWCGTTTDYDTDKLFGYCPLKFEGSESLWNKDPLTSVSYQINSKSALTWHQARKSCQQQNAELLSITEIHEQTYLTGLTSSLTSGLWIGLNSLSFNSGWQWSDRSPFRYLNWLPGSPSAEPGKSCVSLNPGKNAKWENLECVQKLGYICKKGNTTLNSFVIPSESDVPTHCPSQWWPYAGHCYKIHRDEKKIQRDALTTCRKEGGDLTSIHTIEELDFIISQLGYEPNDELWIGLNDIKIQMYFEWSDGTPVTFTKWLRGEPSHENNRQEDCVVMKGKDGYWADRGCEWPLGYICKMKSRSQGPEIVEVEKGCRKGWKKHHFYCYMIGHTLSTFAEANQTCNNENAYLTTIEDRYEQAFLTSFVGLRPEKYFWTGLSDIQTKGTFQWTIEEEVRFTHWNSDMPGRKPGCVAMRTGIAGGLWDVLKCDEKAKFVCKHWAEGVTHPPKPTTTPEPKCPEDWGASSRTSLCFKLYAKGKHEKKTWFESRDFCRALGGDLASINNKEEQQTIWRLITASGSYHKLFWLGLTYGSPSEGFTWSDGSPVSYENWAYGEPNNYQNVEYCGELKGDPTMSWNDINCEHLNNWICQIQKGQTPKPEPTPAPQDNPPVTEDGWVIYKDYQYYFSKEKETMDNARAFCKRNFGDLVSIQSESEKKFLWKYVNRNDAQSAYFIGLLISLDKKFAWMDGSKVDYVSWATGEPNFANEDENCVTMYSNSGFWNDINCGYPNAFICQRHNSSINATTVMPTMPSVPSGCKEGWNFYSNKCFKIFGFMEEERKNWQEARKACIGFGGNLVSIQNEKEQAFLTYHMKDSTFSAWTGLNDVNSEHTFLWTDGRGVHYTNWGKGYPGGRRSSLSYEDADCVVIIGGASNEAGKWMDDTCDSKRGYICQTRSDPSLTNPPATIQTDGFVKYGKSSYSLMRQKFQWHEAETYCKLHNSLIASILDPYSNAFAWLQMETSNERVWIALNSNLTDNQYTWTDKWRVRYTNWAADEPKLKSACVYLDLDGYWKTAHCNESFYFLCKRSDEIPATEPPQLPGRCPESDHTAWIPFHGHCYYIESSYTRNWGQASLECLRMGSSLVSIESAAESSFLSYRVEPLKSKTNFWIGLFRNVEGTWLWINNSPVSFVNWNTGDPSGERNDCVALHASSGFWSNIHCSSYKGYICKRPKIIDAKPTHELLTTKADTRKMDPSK
Description: MST.

B1: RP-182 (peptide)
peptide: KFRKAFKRFF
B1: the dissociation constant (Kd) was determined as 8.37 µM.
